Experimental data published in PMC2111966.

Biological target: Acanthamoeba actin (Acanthamoeba)
Assay: co-sedimentation

- percent of soluble G-actin converted into an insoluble form: > 95%
Substance: Acanthamoeba actin (natural protein)
